Assay results from the supplement of paper PMC12042874.
± gives the uncertainty stated by the source.

Experiment: amyloid nucleation score (Sup35N fusion, yeast selection) (log enrichment); library NNK3; higher = more nucleation; inactive = no reads after selection
Procedure, shortened: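 Random libraries were run with three technical output replicates. In each, psi-negative yeast expressing Sup35N fused to peptides of 20 random codons were induced 24 hours with 100 μM copper sulfate and grown 7 days at 30°C on medium lacking adenine and uracil, and input and output plasmid inserts were Illumina-sequenced. The nucleation score is the DiMSum log enrichment of output over input reads, centred on the mode score of non-aggregating sequences, and sequences under 100 input reads were excluded.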
With AVISNRFYEEKLYDATYLRL the amyloid nucleation score was “inactive”.
In the case of KVGIF, the amyloid nucleation score is reported as “inactive”.
With TLLRHVNNDGGSVSLGTMLA the amyloid nucleation score was “inactive”.
With APVCQWATKARIKCAHWRRT the amyloid nucleation score was “inactive”.
With ENNRCYYKMF the amyloid nucleation score was “inactive”.
In the case of CAKDMMCRVYMSLLLHLGVD, the amyloid nucleation score is reported as “inactive”.
For RMLMIMVACVGTYDSSN, the amyloid nucleation score was “inactive”.
In the case of AVGLRRPLCMYF, the amyloid nucleation score is reported as “inactive”.
For QRRAL, the amyloid nucleation score was “inactive”.
For VSAFFRSKG, the amyloid nucleation score was “inactive”.
For GVRLAWVTSCCRV, the amyloid nucleation score was “inactive”.
For SGFLYCNLSKSSCYAFQAGG, the amyloid nucleation score was “inactive”.
With RCVQCEAYFCLFDKPDVDDT the amyloid nucleation score was 3.05 ± 0.053.
In the case of VGHSNNQFSGFEMCHDNTLL, the amyloid nucleation score is reported as “inactive”.
For NTWRYN, the amyloid nucleation score was “inactive”.
For RVFYIVDMVFIFKRCSIRES, the amyloid nucleation score was “inactive”.
In the case of FRSVVWFCGRVLQTGCCGLN, the amyloid nucleation score is reported as “inactive”.
FGSHYSFRIQKVFFAVQRSP showed an amyloid nucleation score of 2.41 ± 0.082.
With SIFIYDVPIVSRWRIFGKQS the amyloid nucleation score was “inactive”.
In the case of SCGMERRLIIYSSSHNNILY, the amyloid nucleation score is reported as 0.178 ± 0.88.
For LDVQATIAFCVVVYASLYKR, the amyloid nucleation score was “inactive”.
Substance SFLSKGRSRSSFQWYQGHRA has an amyloid nucleation score of -0.302 ± 1.1.
With FYSSACVRPVVRYCCVMCDS the amyloid nucleation score was “inactive”.
In the case of FCFIHIFNHNSRTNF, the amyloid nucleation score is reported as “inactive”.
In the case of YSWYEDPWWGERFWP, the amyloid nucleation score is reported as “inactive”.
With VLGVVT the amyloid nucleation score was “inactive”.
For KCISSRARK, the amyloid nucleation score was “inactive”.
In the case of FCAINP, the amyloid nucleation score is reported as “inactive”.
With RSPRFLRELVLGCSNCWFCG the amyloid nucleation score was “inactive”.
For SIGYDCLQSGAFKSLHTMAL, the amyloid nucleation score was “inactive”.
In the case of HCFTVWWEWP, the amyloid nucleation score is reported as “inactive”.
With RVGTMLHGDWAYCHR the amyloid nucleation score was “inactive”.
CLYIKVFEFNS showed an amyloid nucleation score of 2.16 ± 0.076.
In the case of NHNIHVNGFHFN, the amyloid nucleation score is reported as “inactive”.
In the case of IERGSDFLLHAMAYSFIGCL, the amyloid nucleation score is reported as -0.416 ± 1.1.
In the case of LFKKVDTWSYLHGDTMLRGI, the amyloid nucleation score is reported as “inactive”.
In the case of GVCKWFCESIDMTLRAVWAN, the amyloid nucleation score is reported as “inactive”.
With GRCNLGSMNNWFKLPLKSVR the amyloid nucleation score was “inactive”.
For SLNMLDFFYSLFGVCNKTVL, the amyloid nucleation score was “inactive”.
With NYHTFSYCI the amyloid nucleation score was “inactive”.
In the case of EKLVTCKDYFNRASTVTSLG, the amyloid nucleation score is reported as “inactive”.
With KPQVPSN the amyloid nucleation score was “inactive”.
With YPCERYHRPHDQQNVDLTNL the amyloid nucleation score was “inactive”.
In the case of DRIDRDGRRIECQWGRGGVM, the amyloid nucleation score is reported as “inactive”.
With PMKFQVFGVSQGVR the amyloid nucleation score was “inactive”.
For FGSSMYRMKPVDC, the amyloid nucleation score was “inactive”.
In the case of GYIRPALMARGYIVVNSANI, the amyloid nucleation score is reported as “inactive”.
Work on SSFLWTVWGFSNNPCCSSVA yielded an amyloid nucleation score of 2.46 ± 0.051.
In the case of LLGWCCSDNPDRRKEY, the amyloid nucleation score is reported as “inactive”.
For GSVGSRADVFLGCGDEWRQA, the amyloid nucleation score was “inactive”.
With VSLQLLWNPMLSYFTFQVGR the amyloid nucleation score was 1.16 ± 0.19.
In the case of SYPERMLWSSVMADFKMRRP, the amyloid nucleation score is reported as “inactive”.
YNLAGVFVIGHGNACATAFR showed an amyloid nucleation score of 0.831 ± 0.3.
For SVVDRGASRFKRTVNVSNKA, the amyloid nucleation score was “inactive”.
With FLYWVGSFEAEPV the amyloid nucleation score was “inactive”.
For TVNHDAIRELTDTSTDIFMS, the amyloid nucleation score was “inactive”.
With ASSLMQ the amyloid nucleation score was “inactive”.
Work on SNVGSDDTFLVLLHSHSRSG yielded an amyloid nucleation score of 0.72 ± 0.49.
For SMYLYVAWARVLNDLDNID, the amyloid nucleation score was “inactive”.
With IQFLTNKQALLEKFPGKSPW the amyloid nucleation score was “inactive”.
In the case of GRFRLMNLFQTDSRINLWVR, the amyloid nucleation score is reported as “inactive”.
For TRNIMRSIMVPSTWRVFITV, the amyloid nucleation score was “inactive”.
For YTLAFECLPSLTMQVRNWMM, the amyloid nucleation score was “inactive”.
For LNQGSYYGMARFPL, the amyloid nucleation score was “inactive”.
YCCSGMWVMRSVHSHEIGYL showed an amyloid nucleation score of 0.966 ± 0.18.
With NKFMIGVRMASGTL the amyloid nucleation score was “inactive”.
In the case of GCFILLNWVMQGKLAYTSLI, the amyloid nucleation score is reported as “inactive”.
For DNVIYPASYGVVRRNTRHGF, the amyloid nucleation score was “inactive”.
For FYKRLSMSMIWFLLYLCTDM, the amyloid nucleation score was “inactive”.
With PELVFPMLADRPVRAQKLPC the amyloid nucleation score was “inactive”.
With LDFWRESVGAKE the amyloid nucleation score was “inactive”.
SSLPRPLVFRSLFVWREYIQ gave an amyloid nucleation score of -0.06 ± 0.77.
For DAWDDNYNASRIGFAYMYSI, the amyloid nucleation score was “inactive”.
For FYVNPITEGMA, the amyloid nucleation score was “inactive”.
With RSGFAKMNAILLYFASFLL the amyloid nucleation score was “inactive”.
Substance TARYMLSKYVTLCNDVSI has an amyloid nucleation score of 0.984 ± 0.12.
With LVIACTGYVSLCR the amyloid nucleation score was “inactive”.
In the case of IIKWSCYNLSLYHTKCKDAE, the amyloid nucleation score is reported as “inactive”.
In the case of MDRRNGNRN, the amyloid nucleation score is reported as “inactive”.
In the case of FLWSLLYIFIVCGFCNPSRR, the amyloid nucleation score is reported as “inactive”.
With PWALTMRNVLSKYMFGGGLR the amyloid nucleation score was “inactive”.
With NIIYRVGSQYSL the amyloid nucleation score was “inactive”.
In the case of MTTVKTDCFSQSRYYRHWET, the amyloid nucleation score is reported as “inactive”.
For EMTGTYEVCFMT, the amyloid nucleation score was “inactive”.
For RDVVCRRMRTRVLSSHAPPR, the amyloid nucleation score was “inactive”.
In the case of LFDLWNRVF, the amyloid nucleation score is reported as “inactive”.
PRSVVMYNNFINWYKTHKYY showed an amyloid nucleation score of 1.62 ± 0.067.
For LDIFKISDTWMFDGQLTHLL, the amyloid nucleation score was “inactive”.
With KQKWIPYSLCFFTPVR the amyloid nucleation score was “inactive”.
For LSCYRVFSYCT, the amyloid nucleation score was “inactive”.
For FGVYKLSWNP, the amyloid nucleation score was 0.044 ± 0.41.
For GYDVRL, the amyloid nucleation score was “inactive”.
With CVFDSCSSLYKDMYTLCHVS the amyloid nucleation score was “inactive”.
In the case of FLLVTSRSEEAPLATETYRL, the amyloid nucleation score is reported as “inactive”.
For GRFASYMYCILQQHSLFYWV, the amyloid nucleation score was “inactive”.
For VRLSKHMLVIDRGLKQLVIY, the amyloid nucleation score was “inactive”.
With YTAKYGGFISLYR the amyloid nucleation score was 0.691 ± 0.15.
In the case of NPVLWVGRAF, the amyloid nucleation score is reported as “inactive”.
In the case of IFVWYMNVSCGMVDRYGLPM, the amyloid nucleation score is reported as “inactive”.
In the case of RSDSWLIYSSPINMM, the amyloid nucleation score is reported as “inactive”.
For DMKLPVCSKMPLFMLVIKFK, the amyloid nucleation score was “inactive”.
For TLWMGF, the amyloid nucleation score was “inactive”.
For EFVSDLDTDEVGLHCFCWCP, the amyloid nucleation score was “inactive”.
For FPELSGDYLVIRMTVQFWSV, the amyloid nucleation score was “inactive”.
Substance QYWNFFRFVRGDD has an amyloid nucleation score of 0.601 ± 0.14.
In the case of LLHRTWVFNSELPWCRYVLK, the amyloid nucleation score is reported as “inactive”.
For WTESWYKYMNKDVSSHCKQS, the amyloid nucleation score was “inactive”.
In the case of GSFSMKDTVEVYLTPVWFSR, the amyloid nucleation score is reported as “inactive”.
In the case of KIQTNCNFTC, the amyloid nucleation score is reported as 2.5 ± 0.067.
For DYLPFHLMERDKVALAPWWA, the amyloid nucleation score was “inactive”.
With SCVDLPWQMRLRHRKCQFDG the amyloid nucleation score was “inactive”.
For YVCGLRRKSLVGKLYSIGLS, the amyloid nucleation score was “inactive”.
For WCYDDGQA, the amyloid nucleation score was “inactive”.
With MYNLNVLNE the amyloid nucleation score was “inactive”.
For VARSSQSISSMHMTMRYKCA, the amyloid nucleation score was “inactive”.
For SIGQHWLGS, the amyloid nucleation score was “inactive”.
For SNSYYWPNLYVFSTVNMVSD, the amyloid nucleation score was 2 ± 0.098.
For YDLVSNG, the amyloid nucleation score was “inactive”.
Work on HVCHKTYLSLKLHKLDFFYS yielded an amyloid nucleation score of 0.391 ± 0.17.
With WLSYIDGSKVELIVQAW the amyloid nucleation score was “inactive”.
For QLRICTR, the amyloid nucleation score was -0.358 ± 1.1.
In the case of AAMKGKSTHPHKGSFSLAIA, the amyloid nucleation score is reported as “inactive”.
Substance LWQGNMM has an amyloid nucleation score of -1.07 ± 1.9.
In the case of WPFRKKYGIVEIRDEMYAG, the amyloid nucleation score is reported as “inactive”.
With RGSCEFSSLECDTWSNRPSD the amyloid nucleation score was “inactive”.
In the case of SYMACYFSIAYEYFNSTFDK, the amyloid nucleation score is reported as “inactive”.
In the case of LYSLFVMFLSVKVWFIVFM, the amyloid nucleation score is reported as “inactive”.
With GCYIVM the amyloid nucleation score was “inactive”.
With FLTRFRDPT the amyloid nucleation score was -0.589 ± 0.9.
Work on CRRFELS yielded an amyloid nucleation score of -1.04 ± 1.9.
For CSMVSWLIHCANMHRKTSTS, the amyloid nucleation score was “inactive”.
For YVHWLGSALREGDWVLPSAL, the amyloid nucleation score was “inactive”.
With CPLLSGFDESWDVEYDAQGD the amyloid nucleation score was “inactive”.
For GLVCFYTGLDVMLDTREFYR, the amyloid nucleation score was “inactive”.
With RNCNETLNIVETGNSISANV the amyloid nucleation score was “inactive”.
For IEQGGI, the amyloid nucleation score was “inactive”.
In the case of KTKQIYDGPLGHSYADKCNV, the amyloid nucleation score is reported as “inactive”.
Substance VWNFFSMGSFSVDC has an amyloid nucleation score of 1.28 ± 0.087.
For KSFELYSKNVMYDSVLGVCL, the amyloid nucleation score was “inactive”.
For YCALLRNAITVV, the amyloid nucleation score was “inactive”.
With DNISHLAFCFNMALWYSNQS the amyloid nucleation score was 1.23 ± 0.14.
In the case of NQFMGRVV, the amyloid nucleation score is reported as “inactive”.
In the case of CLELK, the amyloid nucleation score is reported as -0.204 ± 1.1.
For NSIFSVFIGMMPCLGSMENI, the amyloid nucleation score was 3.1 ± 0.081.
For CVPHRRAIVGFFRGCVNAAS, the amyloid nucleation score was “inactive”.
In the case of ALTWMRMYALCNIEVNHYST, the amyloid nucleation score is reported as 2.07 ± 0.066.
For LDCLLFKKCFVVRGLNDYSE, the amyloid nucleation score was “inactive”.
For SMNPIECYNAHLVSSGFWVQ, the amyloid nucleation score was “inactive”.
KVKRFY gave an amyloid nucleation score of 1.17 ± 0.19.
With SQSLPFVCA the amyloid nucleation score was “inactive”.
With GVLMNHIELL the amyloid nucleation score was “inactive”.
For SWGIEDSVSYEMETDVVSNW, the amyloid nucleation score was “inactive”.
Work on QNILLNVIVTRFGSLQWRSE yielded an amyloid nucleation score of 1.83 ± 0.056.
For YKQCN, the amyloid nucleation score was “inactive”.
In the case of CHASEWACYATLFLQT, the amyloid nucleation score is reported as “inactive”.
In the case of DVMKVMDRINKRGDNSNYVC, the amyloid nucleation score is reported as “inactive”.
VYMNGIKVKDGLSTYWVPRE gave an amyloid nucleation score of -0.161 ± 0.69.
For LQFNISYRMFSEVCVFLLVW, the amyloid nucleation score was “inactive”.
In the case of LSFVCTEETHGTNDSAGYNF, the amyloid nucleation score is reported as “inactive”.
With CRVSGGTCMTGISDRRRERI the amyloid nucleation score was “inactive”.
